The values that follow come from paper PMC5266791 (Cell Reports, 2016).

Data set [1] deals with the molecule itself. The data set is described as follows: negative-stain single-particle EM.
The target in data set [2] is FANCB-FANCL-FAAP100 complex (human, UniProt Q8NB91;Q9NW38;Q0VG06). In words: SEC. In general terms: In gel filtration, larger molecules generally elute earlier.
Sequence of FANCB-FANCL-FAAP100 complex (Q9NW38 whole entry, chain 2 of 2): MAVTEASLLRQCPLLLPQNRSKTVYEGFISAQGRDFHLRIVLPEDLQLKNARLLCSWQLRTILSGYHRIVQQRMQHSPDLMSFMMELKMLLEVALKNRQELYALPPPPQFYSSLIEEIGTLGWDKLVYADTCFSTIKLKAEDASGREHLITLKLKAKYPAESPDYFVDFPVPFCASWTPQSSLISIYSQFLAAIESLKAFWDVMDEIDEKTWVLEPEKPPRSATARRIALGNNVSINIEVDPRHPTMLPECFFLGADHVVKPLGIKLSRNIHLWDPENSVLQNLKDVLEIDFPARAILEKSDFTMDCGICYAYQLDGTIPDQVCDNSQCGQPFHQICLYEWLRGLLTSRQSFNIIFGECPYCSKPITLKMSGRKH
Sequence of FANCB-FANCL-FAAP100 complex (Q0VG06 whole entry, chain 3 of 2): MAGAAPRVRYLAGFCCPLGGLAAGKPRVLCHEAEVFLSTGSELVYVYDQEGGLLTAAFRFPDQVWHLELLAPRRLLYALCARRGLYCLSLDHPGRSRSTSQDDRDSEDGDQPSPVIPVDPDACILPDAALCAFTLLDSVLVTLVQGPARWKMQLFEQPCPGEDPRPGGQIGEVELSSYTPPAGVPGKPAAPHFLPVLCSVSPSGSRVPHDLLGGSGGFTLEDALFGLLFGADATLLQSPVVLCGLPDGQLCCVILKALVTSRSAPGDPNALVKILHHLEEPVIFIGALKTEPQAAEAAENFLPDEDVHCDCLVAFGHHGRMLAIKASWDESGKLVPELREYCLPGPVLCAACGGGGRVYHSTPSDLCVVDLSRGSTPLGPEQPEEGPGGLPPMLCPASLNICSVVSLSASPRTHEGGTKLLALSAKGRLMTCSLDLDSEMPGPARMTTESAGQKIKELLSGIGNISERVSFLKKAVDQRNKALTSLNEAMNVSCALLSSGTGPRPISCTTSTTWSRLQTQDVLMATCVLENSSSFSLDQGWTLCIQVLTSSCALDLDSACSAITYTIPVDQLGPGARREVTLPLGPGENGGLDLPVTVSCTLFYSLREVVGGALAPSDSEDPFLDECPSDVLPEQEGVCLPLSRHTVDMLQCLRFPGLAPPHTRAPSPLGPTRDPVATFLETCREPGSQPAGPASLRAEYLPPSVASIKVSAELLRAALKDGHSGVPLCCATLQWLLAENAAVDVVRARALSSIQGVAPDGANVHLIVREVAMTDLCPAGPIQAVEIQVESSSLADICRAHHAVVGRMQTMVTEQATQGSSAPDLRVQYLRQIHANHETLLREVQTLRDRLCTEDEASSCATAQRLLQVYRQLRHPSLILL

B1: FANCB (natural protein)
chain: MTSKQAMSSNEQERLLCYNGEVLVFQLSKGNFADKEPTKTPILHVRRMVFDRGTKVFVQKSTGFFTIKEENSHLKIMCCNCVSDFRTGINLPYIVIEKNKKNNVFEYFLLILHSTNKFEMRLSFKLGYEMKDGLRVLNGPLILWRHVKAFFFISSQTGKVVSVSGNFSSIQWAGEIENLGMVLLGLKECCLSEEECTQEPSKSDYAIWNTKFCVYSLESQEVLSDIYIIPPAYSSVVTYVHICATEIIKNQLRISLIALTRKNQLISFQNGTPKNVCQLPFGDPCAVQLMDSGGGNLFFVVSFISNNACAVWKESFQVAAKWEKLSLVLIDDFIGSGTEQVLLLFKDSLNSDCLTSFKITDLGKINYSSEPSDCNEDDLFEDKQENRYLVVPPLETGLKVCFSSFRELRQHLLLKEKIISKSYKALINLVQGKDDNTSSAEEKECLVPLCGEEENSVHILDEKLSDNFQDSEQLVEKIWYRVIDDSLVVGVKTTSSLKLSLNDVTLSLLMDQAHDSRFRLLKCQNRVIKLSTNPFPAPYLMPCEIGLEAKRVTLTPDSKKEESFVCEHPSKKECVQIITAVTSLSPLLTFSKFCCTVLLQIMERESGNCPKDRYVVCGRVFLSLEDLSTGKYLLTFPKKKPIEHMEDLFALLAAFHKSCFQITSPGYALNSMKVWLLEHMKCEIIKEFPEVYFCERPGSFYGTLFTWKQRTPFEGILIIYSRNQTVMFQCLHNLIRILPINCFLKNLKSGSENFLIDNMAFTLEKELVTLSSLSSAIAKHESNFMQRCEVSKGKSSVVAAALSDRRENIHPYRKELQREKKKMLQTNLKVSGALYREITLKVAEVQLKSDFAAQKLSNL
As usually defined, the stoichiometry N is the number of molecules, sites or subunits per partner or assembly. On to B1, for which, in data set [1], the “stoichiometry N” value is 2.

B2: (MBP)FANCC-FANCE-FANCF complex (complex)
chain 1: MAQDSVDLSCDYQFWMQKLSVWDQASTLETQQDTCLHVAQFQEFLRKMYEALKEMDSNTVIERFPTIGQLLAKACWNPFILAYDESQKILIWCLCCLINKEPQNSGQSKLNSWIQGVLSHILSALRFDKEVALFTQGLGYAPIDYYPGLLKNMVLSLASELRENHLNGFNTQRRMAPERVASLSRVCVPLITLTDVDPLVEALLICHGREPQEILQPEFFEAVNEAILLKKISLPMSAVVCLWLRHLPSLEKAMLHLFEKLISSERNCLRRIECFIKDSSLPQAACHPAIFRVVDEMFRCALLETDGALEIIATIQVFTQCFVEALEKASKQLRFALKTYFPYTSPSLAMVLLQDPQDIPRGHWLQTLKHISELLREAVEDQTHGSCGGPFESWFLFIHFGGWAEMVAEQLLMSAAEPPTALLWLLAFYYGPRDGRQQRAQTMVQVKAVLGHLLAMSRSSSLSAQDLQTVAGQGTDTDLRAPAQQLIRHLLLNFLLWAPGGHTIAWDVITLMAHTAEITHEIIGFLDQTLYRWNRLGIESPRSEKLARELLKELRTQV
chain 2: MATPDAGLPGAEGVEPAPWAQLEAPARLLLQALQAGPEGARRGLGVLRALGSRGWEPFDWGRLLEALCREEPVVQGPDGRLELKPLLLRLPRICQRNLMSLLMAVRPSLPESGLLSVLQIAQQDLAPDPDAWLRALGELLRRDLGVGTSMEGASPLSERCQRQLQSLCRGLGLGGRRLKSPQAPDPEEEENRDSQQPGKRRKDSEEEAASPEGKRVPKRLRCWEEEEDHEKERPEHKSLESLADGGSASPIKDQPVMAVKTGEDGSNLDDAKGLAESLELPKAIQDQLPRLQQLLKTLEEGLEGLEDAPPVELQLLHECSPSQMDLLCAQLQLPQLSDLGLLRLCTWLLALSPDLSLSNATVLTRSLFLGRILSLTSSASRLLTTALTSFCAKYTYPVCSALLDPVLQAPGTGPAQTELLCCLVKMESLEPDAQVLMLGQILELPWKEETFLVLQSLLERQVEMTPEKFSVLMEKLCKKGLAATTSMAYAKLMLTVMTKYQANITETQRLGLAMALEPNTTFLRKSLKAALKHLGP
chain 3: MESLLQHLDRFSELLAVSSTTYVSTWDPATVRRALQWARYLRHIHRRFGRHGPIRTALERRLHNQWRQEGGFGRGPVPGLANFQALGHCDVLLSLRLLENRALGDAARYHLVQQLFPGPGVRDADEETLQESLARLARRRSAVHMLRFNGYRENPNLQEDSLMKTQAELLLERLQEVGKAEAERPARFLSSLWERLPQNNFLKVIAVALLQPPLSRRPQEELEPGIHKSPGEGSQVLVHWLLGNSEVFAAFCRALPAGLLTLVTSRHPALSPVYLGLLTDWGQRLHYDLQKGIWVGTESQDVPWEELHNRFQSLCQAPPPLKDKVLTALETCKAQDGDFEVPGLSIWTDLLLALRSGAFRKRQVLGLSAGLSSV
In the case of B2, in data set [2], the binding result is on record as “binds”.
